From US20090269840A1 (UCB, published 2009)

Columns and labels:
[1] = molecular target: T1, 7 Ig-domain human KDR fused to human Fc (human, UniProt P35968 20-764); assay: BIAcore, KDR-Fc captured on anti-Fc chip, fragment passed over
T1 construct: domain: 7 Ig-domain; also called human 7-domain KDR-Fc; KDR-Fc; not shown: human Fc
From the text: (§1) 7 Ig-domain human KDR fused to human Fc was captured on a chip coated with anti-Fc, and the various fragments of the CDR grafted antibody g165 and the murine parent antibody VR165 were passed over permitting affinity determination. The table below summarises the results obtained. In this assay format, there is an advantage of divalency as shown by the lower off rates (Kd) of the divalent species. The affinity of the grafted DFM is very similar to the murine IgG, with the DFM-PEG showing a minor reduction of affinity.

[2] = molecular target: T1, 7 Ig-domain human KDR fused to human Fc; assay: radioimmunoassay: 7 Ig-domain KDR-human Fc captured by polyclonal anti-Fc on a microtitre plate, fragment added, then 125-I labeled VEGF-165 as the blocked ligand
Description: The ability of the fragments to block VEGF binding to KDR was measured in a radioimmunoassay.

[3] = molecular target: T1, 7 Ig-domain human KDR fused to human Fc; assay: BIAcore, KDR-Fc captured on anti-Fc chip, antibody passed over
From the text: as §1

T1 sequence (P35968 20-764 limits assumed): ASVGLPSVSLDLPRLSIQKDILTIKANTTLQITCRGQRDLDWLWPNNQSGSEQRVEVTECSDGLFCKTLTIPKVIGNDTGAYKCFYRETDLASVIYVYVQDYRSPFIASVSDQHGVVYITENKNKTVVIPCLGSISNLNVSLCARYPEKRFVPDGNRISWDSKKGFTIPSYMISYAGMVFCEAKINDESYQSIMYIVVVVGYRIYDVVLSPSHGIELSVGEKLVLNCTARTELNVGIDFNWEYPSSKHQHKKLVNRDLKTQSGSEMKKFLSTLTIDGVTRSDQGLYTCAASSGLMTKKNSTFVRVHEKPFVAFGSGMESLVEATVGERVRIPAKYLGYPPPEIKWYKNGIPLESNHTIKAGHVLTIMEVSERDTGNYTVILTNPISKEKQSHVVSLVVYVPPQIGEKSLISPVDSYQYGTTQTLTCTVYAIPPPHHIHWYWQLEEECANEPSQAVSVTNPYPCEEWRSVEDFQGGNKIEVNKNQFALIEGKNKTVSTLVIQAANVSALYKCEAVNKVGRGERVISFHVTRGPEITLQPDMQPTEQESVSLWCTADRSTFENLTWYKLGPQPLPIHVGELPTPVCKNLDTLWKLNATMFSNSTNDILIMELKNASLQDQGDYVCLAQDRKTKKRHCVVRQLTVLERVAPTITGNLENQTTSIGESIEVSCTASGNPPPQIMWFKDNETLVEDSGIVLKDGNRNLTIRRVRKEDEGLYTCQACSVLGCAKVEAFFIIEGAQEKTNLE

Kd [1] [nM]	IC50 (read off the curve) [2] [µg/mL]	Kd [3] [nM]	Binder
0.041	~0.05	–	g165 DFM-PEG40 (PEGylated di-(modified Fab) of g165) (other, hinge cysteine linked to (mPEG)-lysyl bis-maleimide (PEG about 40 kDa), no limits stated) light: DIQMTQSPSSLSASVGDRVTITCRASQDIAGSLNWLQQKPGKAIKRLIYATSSLDSGVPKRFSGSRSGSDYTLTISSLQPEDFATYYCLQYGSFPPTFGQGTKVEIKRTVAAPSVFIFPPSDEQLKSGTASVVCLLNNFYPREAKVQWKVDNALQSGNSQESVTEQDSKDSTYSLSSTLTLSKADYEKHKVYACEVTHQGLSSPVTKSFNRGEC heavy: EVQLVESGGGLVQPGGSLRLSCAASGFTFSSYGMSWVRQAPGKGLEWVATITSGGSYTYYVDSVKGRFTISRDNAKNTLYLQMNSLRAEDTAVYYCVRIGEDALDYWGQGTLVTVSSASTKGPSVFPLAPSSKSTSGGTAALGCLVKDYFPEPVTVSWNSGALTSGVHTFPAVLQSSGLYSLSSVVTVPSSLGTQTYICNVNHKPSNTKVDKKVEPKSCDKTHTCAA
0.029	–	–	g165 DFM (di-(modified Fab) of the CDR-grafted antibody g165, naked) (other, hinge cysteine cross-linked to the second Fab' (linker of the naked DFM not described), also called grafted DFM; naked DFM) light: DIQMTQSPSSLSASVGDRVTITCRASQDIAGSLNWLQQKPGKAIKRLIYATSSLDSGVPKRFSGSRSGSDYTLTISSLQPEDFATYYCLQYGSFPPTFGQGTKVEIKRTVAAPSVFIFPPSDEQLKSGTASVVCLLNNFYPREAKVQWKVDNALQSGNSQESVTEQDSKDSTYSLSSTLTLSKADYEKHKVYACEVTHQGLSSPVTKSFNRGEC heavy: EVQLVESGGGLVQPGGSLRLSCAASGFTFSSYGMSWVRQAPGKGLEWVATITSGGSYTYYVDSVKGRFTISRDNAKNTLYLQMNSLRAEDTAVYYCVRIGEDALDYWGQGTLVTVSSASTKGPSVFPLAPSSKSTSGGTAALGCLVKDYFPEPVTVSWNSGALTSGVHTFPAVLQSSGLYSLSSVVTVPSSLGTQTYICNVNHKPSNTKVDKKVEPKSCDKTHTCAA
0.91	~0.2	–	g165 modified Fab (Fab') fragment, CDP791 (Fab, V domains shown, g165 = gL3gH3; no limits stated; also called CDP791 Fab) VH: EVQLVESGGGLVQPGGSLRLSCAASGFTFSSYGMSWVRQAPGKGLEWVATITSGGSYTYYVDSVKGRFTISRDNAKNTLYLQMNSLRAEDTAVYYCVRIGEDALDYWGQGTLVTVSS VL: DIQMTQSPSSLSASVGDRVTITCRASQDIAGSLNWLQQKPGKAIKRLIYATSSLDSGVPKRFSGSRSGSDYTLTISSLQPEDFATYYCLQYGSFPPTFGQGTKVEIKR
1.07	–	–	g165 FAB-PEG40 (PEGylated modified Fab of g165) (Fab, V domains shown, single cysteine of the truncated hinge linked to (mPEG)-lysyl maleimide (two mPEG of about 20,000 Da, about 40,000 Da in all), no limits stated) VH: EVQLVESGGGLVQPGGSLRLSCAASGFTFSSYGMSWVRQAPGKGLEWVATITSGGSYTYYVDSVKGRFTISRDNAKNTLYLQMNSLRAEDTAVYYCVRIGEDALDYWGQGTLVTVSS VL: DIQMTQSPSSLSASVGDRVTITCRASQDIAGSLNWLQQKPGKAIKRLIYATSSLDSGVPKRFSGSRSGSDYTLTISSLQPEDFATYYCLQYGSFPPTFGQGTKVEIKR
–	–	0.03	mouse monoclonal antibody VR165 (antibody, mouse IgG2a, V domains shown, also called mIgG; murine IgG) VH: EVQLVESGGDLVKPGGSLKLSCAASGFTFSSYGMSWVRQTPDKRLQWVATITSGGSYTYYPDTVKGRFTISRDNAENTLYLQMSSLKSEDTAMYYCVRIGEDALDYWGQGTSVTVSS VL: DIQMTQSPSSLSASLGERVSLTCRASQDIAGSLNWLRQEPDGTIKRLIYATSSLDSGVPKRFSGSRSGSDYSLTISSLESEDFVDYYCLQYGSFPPTFGGGSKLEIKR
